Assay results: patent US12104181B2, “Compositions and methods for treating viral infections targeting TRIM7” (THE BOARD OF REGENTS OF THE UNIVERSITY OF TEXAS SYSTEM, priority 2021, dated 2024)

B1: RNFT2: human RING type E3 ligase expressed from lentiviral vector (protein, UniProt Q96EX2 1-444, looked up)
E3 ubiquitin-protein ligase …: MWLFTVNQVLRKMQRRHSSNTDNIPPERNRSQALSSEASVDEGGVFESLKAEAASPPALFSGLSGSLPTSSFPSSLVLGSSAGGGDVFIQMPASREEGGGRGEGGAYHHRQPHHHFHHGGHRGGSLLQHVGGDHRGHSEEGGDEQPGTPAPALSELKAVICWLQKGLPFILILLAKLCFQHKLGIAVCIGMASTFAYANSTLREQVSLKEKRSVLVILWILAFLAGNTLYVLYTFSSQQLYNSLIFLKPNLEMLDFFDLLWIVGIADFVLKYITIALKCLIVALPKIILAVKSKGKFYLVIEELSQLFRSLVPIQLWYKYIMGDDSSNSYFLGGVLIVLYSLCKSFDICGRVGGVRKALKLLCTSQNYGVRATGQQCTEAGDICAICQAEFREPLILLCQHVFCEECLCLWLDRERTCPLCRSVAVDTLRCWKDGATSAHFQVY
B2: RNF2: human RING type E3 ligase expressed from lentiviral vector (protein, UniProt Q99496 2-336, looked up)
E3 ubiquitin-protein ligase …: SQAVQTNGTQPLSKTWELSLYELQRTPQEAITDGLEIVVSPRSLHSELMCPICLDMLKNTMTTKECLHRFCADCIITALRSGNKECPTCRKKLVSKRSLRPDPNFDALISKIYPSRDEYEAHQERVLARINKHNNQQALSHSIEEGLKIQAMNRLQRGKKQQIENGSGAEDNGDSSHCSNASTHSNQEAGPSNKRTKTSDDSGLELDNNNAAMAIDPVMDGASEIELVFRPHPTLMEKDDSAQTRYIKTSGNATVDHLSKYLAVRLALEELRSKGESNQMNLDTASEKQYTIYIATASGQFTVLNGSFSLELVSEKYWKVNKPMELYYAPTKEHK
B3: RNF146: human RING type E3 ligase expressed from lentiviral vector (protein, UniProt Q9NTX7 1-359, looked up)
E3 ubiquitin-protein ligase …: MMAGCGEIDHSINMLPTNRKANESCSNTAPSLTVPECAICLQTCVHPVSLPCKHVFCYLCVKGASWLGKRCALCRQEIPEDFLDKPTLLSPEELKAASRGNGEYAWYYEGRNGWWQYDERTSRELEDAFSKGKKNTEMLIAGFLYVADLENMVQYRRNEHGRRRKIKRDIIDIPKKGVAGLRLDCDANTVNLARESSADGADSVSAQSGASVQPLVSSVRPLTSVDGQLTSPATPSPDASTSLEDSFAHLQLSGDNTAERSHRGEGEEDHESPSSGRVPAPDTSIEETESDASSDSEDVSAVVAQHSLTQQRLLVSNANQTVPDRSDRSGTDRSVAGGGTVSVSVRSRRPDGQCTVTEV
B4: RNF113B: human RING type E3 ligase expressed from lentiviral vector (protein, UniProt Q8IZP6 1-322, looked up)
RING finger protein 113B: MAAPPSPGRTADQADQVCTFLFKKPGRKGAAGLRKRPACDPEHGESSSSGDEGDTVAQPPRVAPRPRGLHSWQKAAHGDRRGEEAAPESLDVVYRSTRSAKPVGPEDMGATADFEQDTEKEHHTPTILKCSQRVQEALRGREHDHIYRGIHSYLRYLKPKDTSMGNSSSGMARKGPIRAPGHLRATVRWDYQPDICKDYKETGFCGFGDSCKFLHDRSDYKLGWEIERELEEGRYCICEDENHEVGSEEEEIPFRCFICRQAFQNPVVTKCRHYFCESCALEHFRATPRCYICDQPTGGIFNPAKELMAKLQKLQAAEGKKR
modifications: lentiviral expression
notes: human RING type E3 ligase expressed from lentiviral vector
B5: RNF10: human RING type E3 ligase expressed from lentiviral vector (protein, UniProt Q8N5U6 1-811, looked up)
E3 ubiquitin-protein ligase …: MPLSSPNAAATASDMDKNSGSNSSSASSGSSKGQQPPRSASAGPAGESKPKSDGKNSSGSKRYNRKRELSYPKNESFNNQSRRSSSQKSKTFNKMPPQRGGGSSKLFSSSFNGGRRDEVAEAQRAEFSPAQFSGPKKINLNHLLNFTFEPRGQTGHFEGSGHGSWGKRNKWGHKPFNKELFLQANCQFVVSEDQDYTAHFADPDTLVNWDFVEQVRICSHEVPSCPICLYPPTAAKITRCGHIFCWACILHYLSLSEKTWSKCPICYSSVHKKDLKSVVATESHQYVVGDTITMQLMKREKGVLVALPKSKWMNVDHPIHLGDEQHSQYSKLLLASKEQVLHRVVLEEKVALEQQLAEEKHTPESCFIEAAIQELKTREEALSGLAGSRREVTGVVAALEQLVLMAPLAKESVFQPRKGVLEYLSAFDEETTEVCSLDTPSRPLALPLVEEEEAVSEPEPEGLPEACDDLELADDNLKEGTICTESSQQEPITKSGFTRLSSSPCYYFYQAEDGQHMFLHPVNVRCLVREYGSLERSPEKISATVVEIAGYSMSEDVRQRHRYLSHLPLTCEFSICELALQPPVVSKETLEMFSDDIEKRKRQRQKKAREERRRERRIEIEENKKQGKYPEVHIPLENLQQFPAFNSYTCSSDSALGPTSTEGHGALSISPLSRSPGSHADFLLTPLSPTASQGSPSFCVGSLEEDSPFPSFAQMLRVGKAKADVWPKTAPKKDENSLVPPAPVDSDGESDNSDRVPVPSFQNSFSQAIEAAFMKLDTPATSDPLSEEKGGKKRKKQKQKLLFSTSVVHTK
modifications: lentiviral expression
notes: as for B4
B6: RNF11: human RING type E3 ligase expressed from lentiviral vector (protein, UniProt Q9Y3C5 2-154, looked up)
RING finger protein 11: GNCLKSPTSDDISLLHESQSDRASFGEGTEPDQEPPPPYQEQVPVPVYHPTPSQTRLATQLTEEEQIRIAQRIGLIQHLPKGVYDPGRDGSEKKIRECVICMMDFVYGDPIRFLPCMHIYHLDCIDDWLMRSFTCPSCMEPVDAALLSSYETN
B7: RNF13: human RING type E3 ligase expressed from lentiviral vector (protein, UniProt O43567 35-381, looked up)
E3 ubiquitin-protein ligase …: DILAYNFENASQTFDDLPARFGYRLPAEGLKGFLINSKPENACEPIVPPPVKDNSSGTFIVLIRRLDCNFDIKVLNAQRAGYKAAIVHNVDSDDLISMGSNDIEVLKKIDIPSVFIGESSANSLKDEFTYEKGGHLILVPEFSLPLEYYLIPFLIIVGICLILIVIFMITKFVQDRHRARRNRLRKDQLKKLPVHKFKKGDEYDVCAICLDEYEDGDKLRILPCSHAYHCKCVDPWLTKTKKTCPVCKQKVVPSQGDSDSDTDSSQEENEVTEHTPLLRPLASVSAQSFGALSESRSHQNMTESSDYEEDDNEDTDSSDAENEINEHDVVVQLQPNGERDYNIANTV
B8: RNF148: human RING type E3 ligase expressed from lentiviral vector (protein, UniProt Q8N7C7 35-305, looked up)
RING finger protein 148: KAIWTAHLNITFQVGNEITSELGESGVFGNHSPLERVSGVVALPEGWNQNACHPLTNFSRPKQADSWLALIERGGCTFTHKINVAAEKGANGVIIYNYQGTGSKVFPMSHQGTENIVAVMISNLKGMEILHSIQKGVYVTVIIEVGRMHMQWVSHYIMYLFTFLAATIAYFYLDCVWRLTPRVPNSFTRRRSQIKTDVKKAIDQLQLRVLKEGDEELDLNEDNCVVCFDTYKPQDVVRILTCKHFFHKACIDPWLLAHRTCPMCKCDILKT
B9: RFPL3: human RING type E3 ligase expressed from lentiviral vector (protein, UniProt O75679 1-317, looked up)
Ret finger protein-like 3: MKRLSLVTTNRLSPQGNFLPLCTFPLAVDMAALFQEASSCPVCSDYLEKPMSLECGCTVCLKCINSLQKEPHGEDLLCCCCSMVSQRNKIRPNRQLERLVSHIKELEPKLKKILQMNPRMRKFQVDMTLDADTANNFLLISDDLRSVRSGLITQNRQDLAERFDVSVCILGSPRFTCGRHYWEVDVGTSTEWDLGVCRESVHCKGKIQLTTELGFWTVSLRDGSRLSASTVPLTFLLVDRKLQRVGIFLDMGMQNVSFFDAESGSHVYTFRSVSAEEPLRPFLAPSIPPNGDQGVLSICPLMNSGTTDAPVRPGEAK
modifications: lentiviral expression
notes: as for B4
B10: RSPRY1: human RING type E3 ligase expressed from lentiviral vector (protein, UniProt Q96DX4 17-576, looked up)
RING finger and SPRY …: QGLLLTLEEHIAHFLGTGGAATTMGNSCICRDDSGTDDSVDTQQQQAENSAVPTADTRSQPRDPVRPPRRGRGPHEPRRKKQNVDGLVLDTLAVIRTLVDNDQEPPYSMITLHEMAETDEGWLDVVQSLIRVIPLEDPLGPAVITLLLDECPLPTKDALQKLTEILNLNGEVACQDSSHPAKHRNTSAVLGCLAEKLAGPASIGLLSPGILEYLLQCLKLQSHPTVMLFALIALEKFAQTSENKLTISESSISDRLVTLESWANDPDYLKRQVGFCAQWSLDNLFLKEGRQLTYEKVNLSSIRAMLNSNDVSEYLKISPHGLEARCDASSFESVRCTFCVDAGVWYYEVTVVTSGVMQIGWATRDSKFLNHEGYGIGDDEYSCAYDGCRQLIWYNARSKPHIHPCWKEGDTVGFLLDLNEKQMIFFLNGNQLPPEKQVFSSTVSGFFAAASFMSYQQCEFNFGAKPFKYPPSMKFSTFNDYAFLTAEEKIILPRHRRLALLKQVSIRENCCSLCCDEVADTQLKPCGHSDLCMDCALQLETCPLCRKEIVSRIRQISHIS
B11: RNF133: human RING type E3 ligase expressed from lentiviral vector (protein, UniProt Q8WVZ7 1-376, looked up)
E3 ubiquitin-protein ligase …: MHLLKVGTWRNNTASSWLMKFSVLWLVSQNCCRASVVWMAYMNISFHVGNHVLSELGETGVFGRSSTLKRVAGVIVPPEGKIQNACNPNTIFSRSKYSETWLALIERGGCTFTQKIKVATEKGASGVIIYNVPGTGNQVFPMFHQAFEDVVVVMIGNLKGTEIFHLIKKGVLITAVVEVGRKHIIWMNHYLVSFVIVTTATLAYFIFYHIHRLCLARIQNRRWQRLTTDLQNTFGQLQLRVVKEGDEEINPNGDSCVICFERYKPNDIVRILTCKHFFHKNCIDPWILPHGTCPICKCDILKVLGIQVVVENGTEPLQVLMSNELPETLSPSEEETNNEVSPAGTSDKVIHVEENPTSQNNDIQPHSVVEDVHPSP
modifications: lentiviral expression
notes: as for B4
B12: RFFL: human RING type E3 ligase expressed from lentiviral vector (protein, UniProt Q8WZ73 1-363, looked up)
E3 ubiquitin-protein ligase …: MWATCCNWFCLDGQPEEVPPPQGARMQAYSNPGYSSFPSPTGLEPSCKSCGAHFANTARKQTCLDCKKNFCMTCSSQVGNGPRLCLLCQRFRATAFQREELMKMKVKDLRDYLSLHDISTEMCREKEELVLLVLGQQPVISQEDRTRASTLSPDFPEQQAFLTQPHSSMVPPTSPNLPSSSAQATSVPPAQVQENQQANGHVSQDQEEPVYLESVARVPAEDETQSIDSEDSFVPGRRASLSDLTDLEDIEGLTVRQLKEILARNFVNYKGCCEKWELMERVTRLYKDQKGLQHLVSGAEDQNGGAVPSGLEENLCKICMDSPIDCVLLECGHMVTCTKCGKRMNECPICRQYVIRAVHVFRS

Tested on: coxsackievirus B3 (CVB3-GFP)
Format: cell-based
Conditions: HeLa cells, replicate R1; for Percent Infected R1: GFP-positive cells within RFP-positive gate

Row | Molecule | Percent Infected R1 [%] | Z score R1
1 | B1 | 86.5 | −0.03
2 | B2 | 87.4 | −0.02
3 | B3 | 89.7 | 0.01
4 | B4 | 88 | −0.01
5 | B5 | 88.9 | 0
6 | B6 | 90.7 | 0.03
7 | B7 | 97.9 | 0.12
8 | B8 | 82.3 | −0.08
9 | B9 | 78.3 | −0.13
10 | B10 | 91.4 | 0.04
11 | B11 | 94.9 | 0.08
12 | B12 | 88.2 | −0.01
